Here are results for one molecule from article PMC7904604.

The series deals with GST-BLMP-1(ZnFs) (Caenorhabditis elegans, UniProt Q93560 508-642). Description: competition.
Sequence of GST-BLMP-1(ZnFs) (Q93560 508-642): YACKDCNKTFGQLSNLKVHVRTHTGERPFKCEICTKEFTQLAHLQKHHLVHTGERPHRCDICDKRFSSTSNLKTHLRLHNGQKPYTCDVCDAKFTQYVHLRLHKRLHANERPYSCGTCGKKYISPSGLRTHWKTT

B1: non-specific sequence (dsDNA)
DNA 1: GGCTCTTCCGGTCGTGCAAGAGGAAATACAAAAAA
DNA 2: TTTTTTGTATTTCCTCTTGCACGACCGGAAGAGCC
As for B1, the binding result is reported as “no binding”.
